The chains are these.
B1: SEQ ID NO:40 (protein)
chain: MADLYENPMGLMGFEFIEFASPTPGTLEPIFEIMGFTKVATHRSKNVHLYRQGEINLILNNEPNSIASYFAAEHGPSVCGMAFRVKDSQKAYNRALELGAQPIHIDTGPMELNLPAIKGIGGAPLYLIDRFGEGSSIYDIDFVYLEGVERNPVGAGLKVIDHLTHNVYRGRMVYWANFYEKLFNFREARYFDIKGEYTGLTSKAMSAPDGMIKIPLNEESSKGAGQIEEFLMQFNGEGIQHVAFLTDDLVKTWDALKKIGMRFMTAPGDEYYEMLEGRLPDHGEPVDQLQARGILLDGSSVEGDKRLLLQIFSEQLMGPVFFEFIQRKGDDGFGPDSFKVLFESMERDQVRRGVLTAD
modifications: mutant HPPD polypeptide
B2: SEQ ID NO:66 (protein)
chain: B1 chain with K213R, M264L, S344Q, M345I
modifications: mutant HPPD polypeptide
B3: SEQ ID NO:53 (protein)
chain: B1 chain with K213R, M264L, Q315T, D336H, S344Q
modifications: mutant HPPD polypeptide
B4: SEQ ID NO:42 (protein)
chain: B1 chain with Q315T
modifications: mutant HPPD polypeptide
B5: SEQ ID NO:60 (protein)
chain: B1 chain with M264L, Q315K, S344Q
modifications: mutant HPPD polypeptide
B6: SEQ ID NO:63 (protein)
chain: B1 chain with P215A, M264L, Q315K, D336H, S344Q
modifications: mutant HPPD polypeptide
B7: SEQ ID NO:68 (protein)
chain: B1 chain with P215A, M264L, S344Q, M345I
modifications: mutant HPPD polypeptide
B8: SEQ ID NO:64 (protein)
chain: B1 chain with M264L, D336H
modifications: mutant HPPD polypeptide
B9: SEQ ID NO:55 (protein)
chain: B1 chain with K213R, M264L, Q315K, D336H
modifications: mutant HPPD polypeptide
B10: SEQ ID NO:46 (protein)
chain: B1 chain with Q315K, M345I
modifications: mutant HPPD polypeptide
B11: SEQ ID NO:45 (protein)
chain: B1 chain with Q315T, D336H
modifications: mutant HPPD polypeptide
B12: SEQ ID NO:50 (protein)
chain: B1 chain with Q315T, D336H, M345I
modifications: mutant HPPD polypeptide
B13: SEQ ID NO:59 (protein)
chain: B1 chain with K213R, M264L, Q315K, S344Q
modifications: mutant HPPD polypeptide
B14: SEQ ID NO:65 (protein)
chain: B1 chain with K213R, M264L, Q315K, S344Q, M345I
modifications: mutant HPPD polypeptide
B15: SEQ ID NO:49 (protein)
chain: B1 chain with D336H, M345I
modifications: mutant HPPD polypeptide
B16: SEQ ID NO:56 (protein)
chain: B1 chain with K213R, M264L, D336H, S344Q
modifications: mutant HPPD polypeptide
B17: SEQ ID NO:41 (protein)
chain: B1 chain with Q315R
modifications: mutant HPPD polypeptide
B18: SEQ ID NO:67 (protein)
chain: B1 chain with K213R, P215A, M264L, M345V
modifications: mutant HPPD polypeptide
B19: SEQ ID NO:51 (protein)
chain: B1 chain with K213R, P215A, D336H, M345I
modifications: mutant HPPD polypeptide
B20: SEQ ID NO:44 (protein)
chain: B1 chain with D336H
modifications: mutant HPPD polypeptide
B21: SEQ ID NO:52 (protein)
chain: B1 chain with K213R, P215A, Q315R, D336H, M345I
modifications: mutant HPPD polypeptide
B22: SEQ ID NO:43 (protein)
chain: B1 chain with Q315K, D336H
modifications: mutant HPPD polypeptide
B23: SEQ ID NO:54 (protein)
chain: B1 chain with K213R, M264L, Q315K, D336H, S344Q
modifications: mutant HPPD polypeptide
B24: SEQ ID NO:47 (protein)
chain: B1 chain with Q315R, M345I
modifications: mutant HPPD polypeptide
B25: SEQ ID NO:69 (protein)
chain: B1 chain with M345I
modifications: mutant HPPD polypeptide
B26: SEQ ID NO:48 (protein)
chain: B1 chain with Q315T, M345I
modifications: mutant HPPD polypeptide
B27: SEQ ID NO:58 (protein)
chain: B1 chain with M264L, D336H, S344Q
modifications: mutant HPPD polypeptide

Changes are numbered by the printed parent chain.

The first series deals with Pseudomonas fluorescens HPPD polypeptide (wild-type and mutants). Kind of series: Coupled HPPD activity assay: turnover and residual turnover in crude HPPD polypeptide extracts with and without Cmpd. 1. Particulars: 100 μM Cmpd. 1, normalised to turnover without inhibitor. Type of series: biochemical.
Turning to B1, the “Residual turnover [%]” value came to 36%.
Same read-out and setting: next, B2: 65%; B3: 73%; B4: 33%.
On the same count and under the same terms, with B5 the figure was 56%.
Still for that read-out and setting: with B6 the figure was 67%; with B7, 74%.
For B8, the “Residual turnover [%]” value is 61%.
On the same count and under the same terms, with B9 the figure was 58%.
Still for that read-out and setting: with B10 the figure was 36%.
Still for that read-out and setting: with B11 the figure was 60%.
In the case of B12, the “Residual turnover [%]” value worked out at 54%.
Still for that read-out and setting: next, B13: 59%.
Consider B14, for which the “Residual turnover [%]” value stood at 60%.
B15: the “Residual turnover [%]” value was 52%.
On the same count and under the same terms, next, B16: 75%.
On the same count and under the same terms, with B17 the figure was 43%; with B18, 90%.
Still for that read-out and setting: next, B19: 61%; B20: 54%.
As for B21, the “Residual turnover [%]” value is reported as 61%.
As for B22, the “Residual turnover [%]” value amounted to 54%.
Still for that read-out and setting: next, B23: 82%; B24: 68%.
For the molecule B25, the “Residual turnover [%]” value came to 40%.
On to B26, for which the “Residual turnover [%]” value was found to be 38%.
Still for that read-out and setting: with B27 the figure was 81%.

Still in this series, the particulars now being: absence of Cmpd. 1; changes in absorbance (OD) at 320 nm in the coupled assay, 30 min.
In turn, B1 had a Turnover of 0.204.
Still for that read-out and setting: with B2 the figure was 0.187.
Still for that read-out and setting: next, B3: 0.339; B4: 0.209.
In the case of B5, the Turnover is listed as 0.252.
In turn, B6 displayed a Turnover of 0.209.
Same read-out and setting: next, B7: 0.182; B8: 0.295.
The same measure, in the same setting: with B9 the figure was 0.303.
In the case of B10, the Turnover is listed as 0.162.
On the same count and under the same terms, next, B11: 0.275; B12: 0.272.
The molecule B13 had a Turnover of 0.215.
For B14, the Turnover is 0.204.
Still for that read-out and setting: with B15 the figure was 0.318.
Still for that read-out and setting: next, B16: 0.339; B17: 0.247.
B18 showed a Turnover of 0.141.
Still for that read-out and setting: next, B19: 0.173; B20: 0.272; B21: 0.173.
The molecule B22 returned a Turnover of 0.291.
B23: the Turnover is reported as 0.274.
In turn, B24 had a Turnover of 0.09.
Same read-out and setting: next, B25: 0.173; B26: 0.161.
Consider B27, for which the Turnover is recorded as 0.339.

The series is the same for the next values; noted with them: presence of 100 μM Cmpd. 1; changes in absorbance (OD) at 320 nm in the coupled assay, 30 min.
With B1, the Residual turnover stood at 0.073.
On the same count and under the same terms, with B2 the figure was 0.122; with B3, 0.246; with B4, 0.068.
For the molecule B5, the Residual turnover came to 0.14.
Same read-out and setting: with B6 the figure was 0.139; with B7, 0.134.
Same read-out and setting: next, B8: 0.181; B9: 0.177; B10: 0.059.
Turning to B11, the Residual turnover is recorded as 0.164.
Still for that read-out and setting: next, B12: 0.148; B13: 0.126; B14: 0.123.
In the case of B15, the Residual turnover is 0.165.
The same measure, in the same setting: with B16 the figure was 0.253; with B17, 0.105.
Still for that read-out and setting: with B18 the figure was 0.127; with B19, 0.106; with B20, 0.148.
Still for that read-out and setting: next, B21: 0.105; B22: 0.157.
Take B23: the Residual turnover is 0.224.
On the same count and under the same terms, next, B24: 0.061; B25: 0.069.
Same read-out and setting: with B26 the figure was 0.061; with B27, 0.276.

The values above are taken from US11371056B2, “HPPD variants and methods of use” (BASF Agricultural Solutions Seed US LLC, priority 2017, dated 2022).
